{"source": "patent US20150344583A1", "key": {"[1]": {"molecular_target": "human BCMA (huBCMA) on cells (human) (UniProt Q02223)", "sequence (Q02223 whole entry N81S)": "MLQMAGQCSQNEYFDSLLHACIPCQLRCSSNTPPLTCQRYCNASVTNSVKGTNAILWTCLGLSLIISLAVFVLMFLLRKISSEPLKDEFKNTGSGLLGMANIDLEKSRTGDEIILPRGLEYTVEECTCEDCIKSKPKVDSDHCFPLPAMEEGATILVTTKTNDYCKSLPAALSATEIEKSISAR", "test": "FACS, hu BCMA"}, "[2]": {"molecular_target": "human BCMA (huBCMA) on cells (human) (UniProt Q02223)", "test": "APRIL blocking"}, "[3]": {"molecular_target": "TACI on transiently transfected cells (human) (UniProt O14836)", "sequence (O14836 whole entry)": "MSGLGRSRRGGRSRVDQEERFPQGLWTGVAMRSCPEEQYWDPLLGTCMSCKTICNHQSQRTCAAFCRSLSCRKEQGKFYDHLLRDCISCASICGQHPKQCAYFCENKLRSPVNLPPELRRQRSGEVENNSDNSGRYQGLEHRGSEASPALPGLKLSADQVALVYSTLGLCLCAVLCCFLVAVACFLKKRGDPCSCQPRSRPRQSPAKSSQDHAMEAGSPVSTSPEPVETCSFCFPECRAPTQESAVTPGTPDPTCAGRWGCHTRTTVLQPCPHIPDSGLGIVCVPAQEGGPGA", "test": "FACS, hu TACI"}, "[4]": {"molecular_target": "cynomolgus (Macaca fascicularis) BCMA on cells (cynomolgus (Macaca fascicularis))", "sequence (Q02223 other isoform, or with tags, fused parts or gaps)": "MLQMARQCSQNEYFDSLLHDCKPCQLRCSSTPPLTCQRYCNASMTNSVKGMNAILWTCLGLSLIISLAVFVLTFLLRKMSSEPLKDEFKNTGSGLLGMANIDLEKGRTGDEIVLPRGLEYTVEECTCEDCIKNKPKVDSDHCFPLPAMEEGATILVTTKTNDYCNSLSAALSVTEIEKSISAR", "test": "FACS, Cyno BCMA"}, "[5]": {"molecular_target": "cynomolgus (Macaca fascicularis) BCMA on cells (cynomolgus (Macaca fascicularis))", "test": "CynoBCMA O/N FACS"}, "[6]": {"molecular_target": "recombinant soluble human BCMA (rhu BCMA), analyte of the Example 2 Biacore assay (human) (UniProt Q02223)", "sequence (Q02223 1-54 limits assumed)": "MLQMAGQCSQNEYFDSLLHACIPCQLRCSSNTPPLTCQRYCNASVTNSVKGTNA", "test": "SPR (BIAcore 3000), steady state fit, antibody captured, rhu BCMA as analyte"}}, "data": [{"binder": "33C7 (antibody, from a related filing, V domains shown) VH: EVQLLESGGALVQPGGSLRLSCAASGFTFSSYAMNWVRQAPGKGLEWVSAISVGGDTYYADSVKGRFTISRDNSKNTLYLHVNSLSAEDSAVYYCAKDQVTLVRGVWYYYGLDVWGQGTTVTVSS VL: VIVLIQSPLSLPVTPGEPASISCRSSQSLLHSNGNNYLDWYLQKPGQSPHLLISLGSNRTSGVPDRFSGSGSGTDFTLKISRVEAEDVGFYYCMQALQPPRRFGQGTKLEIKR", "values": [{"measurement": "MFI", "setting": "[1]", "value": 132000, "unit": "MFI"}, {"measurement": "% Inhibition n=1", "setting": "[2]", "value": 68, "unit": "%"}, {"measurement": "% Inhibition n=2", "setting": "[2]", "value": 88, "unit": "%"}, {"measurement": "Avg. % Inhibition", "setting": "[2]", "value": 78, "unit": "%"}, {"measurement": "MFI", "setting": "[3]", "value": 1890, "unit": "MFI"}, {"measurement": "MFI", "setting": "[4]", "value": 238000, "unit": "MFI"}, {"measurement": "MFI", "setting": "[5]", "value": 109, "unit": "MFI"}]}, {"binder": "11F12 (antibody, from a related filing, IgG1, V domains shown) VH: QVQLVESGGGVVQPGRSLRLSCAASGFTFSSYGLHWVRQAPGKGLEWVALISYDGSNKYYADSVKGRFTISRDNSKNTLYLQMNSLRAEDTAVYYCWYSSSWTPLDYWGQGTLVTVSS VL: DIQMTQSPSSLSASVGDRVTITCRASQGIRNDLGWYQQKPGKAPKRLIYAASSLQSGVPSRFSGSGSGTEFTLTISSLQPEDFATYYCLQYYSYPLTFGGGTKVEIKR", "values": [{"measurement": "Kd", "setting": "[6]", "value": 36.1, "unit": "nM"}]}]}
